Measured values published in patent publication US20210388087A1 (Chugai, published 2021).

Biological target: T1, CD3 epsilon homodimer protein (UniProt P07766 23-126)
T1 construct: also called CD3 (CD3 epsilon)
Assay: SPR, CD3 epsilon homodimer on chip, one-arm antibody as analyte;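 note: surface plasmon resonance at 25 °C with CD3 epsilon homodimer amine-coupled to a CM4 sensor chip, antibody injected as analyte, HBS-EP+ as running buffer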

T1 sequence (P07766 23-126): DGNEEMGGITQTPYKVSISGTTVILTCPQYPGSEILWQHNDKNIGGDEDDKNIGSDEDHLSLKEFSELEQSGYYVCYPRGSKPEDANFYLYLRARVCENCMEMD

KD ratio (KD of CE115HA000/KD of altered form) | Binder
0.58 | CE115HA000 N54A (antibody, human IgG1, kappa, L234A L235A, N297A, name in Kabat numbering, one-arm antibody) heavy: QVQLVESGGGVVQPGRSLRLSCAASGFTFSNAWMHWVRQAPGKGLEWVAQIKAKSNAYATYYAESVKGRFTISRDDSKNSLYLQMNSLKTEDTAVYYCRYVHYGAYYGVDAWGQGTTVTVSSASTKGPSVFPLAPSSKSTSGGTAALGCLVKDYFPEPVTVSWNSGALTSGVHTFPAVLQSSGLYSLSSVVTVPSSSLGTQTYICNVNHKPSNTKVDKKVEPKSCDKTHTCPPCPAPEAAGGPSVFLFPPKPKDTLMISRTPEVTCVVVDVSHEDPEVKFNWYVDGVEVHNAKTKPREEQYASTYRVVSVLTVLHQDWLNGKEYKCKVSNKALPAPIEKTISKAKGQPREPQVYTLPPSRCELTKNQVSLSCAVKGFYPSDIAVEWESNGQPENNYKTTPPVLDSDGSFFLVSKLTVDKSRWQQGNVFSCSVMHEALHNHYTQKSLSLSPDYKDDDDK EPKSSDKTHTCPPCPAPELLGGPSVFLFPPKPKDTLMISRTPEVTCVVVDVSHEDPEVKFNWYVDGVEVHNAKTKPREEQYNSTYRVVSVLTVLHQDWLNGKEYKCKVSNKALPAPIEKTISKAKGQPREPQVCTLPPSRDELTKNQVSLWCLVKGFYPSDIAVEWESNGQPENNYKTTPPVLDSDGSFFLYSKLTVDKSRWQQGNVFSCSVMHEALHNRYTQKSLSLSP light: DIVMTQSPLSLPVTPGEPASISCRSSQSLVHSNRNTYLHWYQQKPGQAPRLLIYKVSNRFSGVPDRFSGSGSGTDFTLKISRVEAEDVGVYYCGQGTQVPYTFGQGTKLEIKRTVAAPSVFIFPPSDEQLKSGTASVVCLLNNFYPREAKVQWKVDNALQSGNSQESVTEQDSKDSTYSLSSTLTLSKADYEKHKVYACEVTHQGLSSPVTKSFNRGEC
0.97 | CE115HA000 N54F (antibody, human IgG1, kappa, L234A L235A, N297A, name in Kabat numbering, one-arm antibody) heavy: QVQLVESGGGVVQPGRSLRLSCAASGFTFSNAWMHWVRQAPGKGLEWVAQIKAKSNFYATYYAESVKGRFTISRDDSKNSLYLQMNSLKTEDTAVYYCRYVHYGAYYGVDAWGQGTTVTVSSASTKGPSVFPLAPSSKSTSGGTAALGCLVKDYFPEPVTVSWNSGALTSGVHTFPAVLQSSGLYSLSSVVTVPSSSLGTQTYICNVNHKPSNTKVDKKVEPKSCDKTHTCPPCPAPEAAGGPSVFLFPPKPKDTLMISRTPEVTCVVVDVSHEDPEVKFNWYVDGVEVHNAKTKPREEQYASTYRVVSVLTVLHQDWLNGKEYKCKVSNKALPAPIEKTISKAKGQPREPQVYTLPPSRCELTKNQVSLSCAVKGFYPSDIAVEWESNGQPENNYKTTPPVLDSDGSFFLVSKLTVDKSRWQQGNVFSCSVMHEALHNHYTQKSLSLSPDYKDDDDK EPKSSDKTHTCPPCPAPELLGGPSVFLFPPKPKDTLMISRTPEVTCVVVDVSHEDPEVKFNWYVDGVEVHNAKTKPREEQYNSTYRVVSVLTVLHQDWLNGKEYKCKVSNKALPAPIEKTISKAKGQPREPQVCTLPPSRDELTKNQVSLWCLVKGFYPSDIAVEWESNGQPENNYKTTPPVLDSDGSFFLYSKLTVDKSRWQQGNVFSCSVMHEALHNRYTQKSLSLSP light: DIVMTQSPLSLPVTPGEPASISCRSSQSLVHSNRNTYLHWYQQKPGQAPRLLIYKVSNRFSGVPDRFSGSGSGTDFTLKISRVEAEDVGVYYCGQGTQVPYTFGQGTKLEIKRTVAAPSVFIFPPSDEQLKSGTASVVCLLNNFYPREAKVQWKVDNALQSGNSQESVTEQDSKDSTYSLSSTLTLSKADYEKHKVYACEVTHQGLSSPVTKSFNRGEC
0.84 | CE115HA000 N54G (antibody, human IgG1, kappa, L234A L235A, N297A, name in Kabat numbering, one-arm antibody) heavy: QVQLVESGGGVVQPGRSLRLSCAASGFTFSNAWMHWVRQAPGKGLEWVAQIKAKSNGYATYYAESVKGRFTISRDDSKNSLYLQMNSLKTEDTAVYYCRYVHYGAYYGVDAWGQGTTVTVSSASTKGPSVFPLAPSSKSTSGGTAALGCLVKDYFPEPVTVSWNSGALTSGVHTFPAVLQSSGLYSLSSVVTVPSSSLGTQTYICNVNHKPSNTKVDKKVEPKSCDKTHTCPPCPAPEAAGGPSVFLFPPKPKDTLMISRTPEVTCVVVDVSHEDPEVKFNWYVDGVEVHNAKTKPREEQYASTYRVVSVLTVLHQDWLNGKEYKCKVSNKALPAPIEKTISKAKGQPREPQVYTLPPSRCELTKNQVSLSCAVKGFYPSDIAVEWESNGQPENNYKTTPPVLDSDGSFFLVSKLTVDKSRWQQGNVFSCSVMHEALHNHYTQKSLSLSPDYKDDDDK EPKSSDKTHTCPPCPAPELLGGPSVFLFPPKPKDTLMISRTPEVTCVVVDVSHEDPEVKFNWYVDGVEVHNAKTKPREEQYNSTYRVVSVLTVLHQDWLNGKEYKCKVSNKALPAPIEKTISKAKGQPREPQVCTLPPSRDELTKNQVSLWCLVKGFYPSDIAVEWESNGQPENNYKTTPPVLDSDGSFFLYSKLTVDKSRWQQGNVFSCSVMHEALHNRYTQKSLSLSP light: DIVMTQSPLSLPVTPGEPASISCRSSQSLVHSNRNTYLHWYQQKPGQAPRLLIYKVSNRFSGVPDRFSGSGSGTDFTLKISRVEAEDVGVYYCGQGTQVPYTFGQGTKLEIKRTVAAPSVFIFPPSDEQLKSGTASVVCLLNNFYPREAKVQWKVDNALQSGNSQESVTEQDSKDSTYSLSSTLTLSKADYEKHKVYACEVTHQGLSSPVTKSFNRGEC
0.91 | CE115HA000 N54L (antibody, human IgG1, kappa, L234A L235A, N297A, name in Kabat numbering, one-arm antibody) heavy: QVQLVESGGGVVQPGRSLRLSCAASGFTFSNAWMHWVRQAPGKGLEWVAQIKAKSNLYATYYAESVKGRFTISRDDSKNSLYLQMNSLKTEDTAVYYCRYVHYGAYYGVDAWGQGTTVTVSSASTKGPSVFPLAPSSKSTSGGTAALGCLVKDYFPEPVTVSWNSGALTSGVHTFPAVLQSSGLYSLSSVVTVPSSSLGTQTYICNVNHKPSNTKVDKKVEPKSCDKTHTCPPCPAPEAAGGPSVFLFPPKPKDTLMISRTPEVTCVVVDVSHEDPEVKFNWYVDGVEVHNAKTKPREEQYASTYRVVSVLTVLHQDWLNGKEYKCKVSNKALPAPIEKTISKAKGQPREPQVYTLPPSRCELTKNQVSLSCAVKGFYPSDIAVEWESNGQPENNYKTTPPVLDSDGSFFLVSKLTVDKSRWQQGNVFSCSVMHEALHNHYTQKSLSLSPDYKDDDDK EPKSSDKTHTCPPCPAPELLGGPSVFLFPPKPKDTLMISRTPEVTCVVVDVSHEDPEVKFNWYVDGVEVHNAKTKPREEQYNSTYRVVSVLTVLHQDWLNGKEYKCKVSNKALPAPIEKTISKAKGQPREPQVCTLPPSRDELTKNQVSLWCLVKGFYPSDIAVEWESNGQPENNYKTTPPVLDSDGSFFLYSKLTVDKSRWQQGNVFSCSVMHEALHNRYTQKSLSLSP light: DIVMTQSPLSLPVTPGEPASISCRSSQSLVHSNRNTYLHWYQQKPGQAPRLLIYKVSNRFSGVPDRFSGSGSGTDFTLKISRVEAEDVGVYYCGQGTQVPYTFGQGTKLEIKRTVAAPSVFIFPPSDEQLKSGTASVVCLLNNFYPREAKVQWKVDNALQSGNSQESVTEQDSKDSTYSLSSTLTLSKADYEKHKVYACEVTHQGLSSPVTKSFNRGEC
0.82 | CE115HA000 N54K (antibody, human IgG1, kappa, L234A L235A, N297A, name in Kabat numbering, one-arm antibody) heavy: QVQLVESGGGVVQPGRSLRLSCAASGFTFSNAWMHWVRQAPGKGLEWVAQIKAKSNKYATYYAESVKGRFTISRDDSKNSLYLQMNSLKTEDTAVYYCRYVHYGAYYGVDAWGQGTTVTVSSASTKGPSVFPLAPSSKSTSGGTAALGCLVKDYFPEPVTVSWNSGALTSGVHTFPAVLQSSGLYSLSSVVTVPSSSLGTQTYICNVNHKPSNTKVDKKVEPKSCDKTHTCPPCPAPEAAGGPSVFLFPPKPKDTLMISRTPEVTCVVVDVSHEDPEVKFNWYVDGVEVHNAKTKPREEQYASTYRVVSVLTVLHQDWLNGKEYKCKVSNKALPAPIEKTISKAKGQPREPQVYTLPPSRCELTKNQVSLSCAVKGFYPSDIAVEWESNGQPENNYKTTPPVLDSDGSFFLVSKLTVDKSRWQQGNVFSCSVMHEALHNHYTQKSLSLSPDYKDDDDK EPKSSDKTHTCPPCPAPELLGGPSVFLFPPKPKDTLMISRTPEVTCVVVDVSHEDPEVKFNWYVDGVEVHNAKTKPREEQYNSTYRVVSVLTVLHQDWLNGKEYKCKVSNKALPAPIEKTISKAKGQPREPQVCTLPPSRDELTKNQVSLWCLVKGFYPSDIAVEWESNGQPENNYKTTPPVLDSDGSFFLYSKLTVDKSRWQQGNVFSCSVMHEALHNRYTQKSLSLSP light: DIVMTQSPLSLPVTPGEPASISCRSSQSLVHSNRNTYLHWYQQKPGQAPRLLIYKVSNRFSGVPDRFSGSGSGTDFTLKISRVEAEDVGVYYCGQGTQVPYTFGQGTKLEIKRTVAAPSVFIFPPSDEQLKSGTASVVCLLNNFYPREAKVQWKVDNALQSGNSQESVTEQDSKDSTYSLSSTLTLSKADYEKHKVYACEVTHQGLSSPVTKSFNRGEC
0.59 | CE115HA000 N54D (antibody, human IgG1, kappa, L234A L235A, N297A, name in Kabat numbering, one-arm antibody) heavy: QVQLVESGGGVVQPGRSLRLSCAASGFTFSNAWMHWVRQAPGKGLEWVAQIKAKSNDYATYYAESVKGRFTISRDDSKNSLYLQMNSLKTEDTAVYYCRYVHYGAYYGVDAWGQGTTVTVSSASTKGPSVFPLAPSSKSTSGGTAALGCLVKDYFPEPVTVSWNSGALTSGVHTFPAVLQSSGLYSLSSVVTVPSSSLGTQTYICNVNHKPSNTKVDKKVEPKSCDKTHTCPPCPAPEAAGGPSVFLFPPKPKDTLMISRTPEVTCVVVDVSHEDPEVKFNWYVDGVEVHNAKTKPREEQYASTYRVVSVLTVLHQDWLNGKEYKCKVSNKALPAPIEKTISKAKGQPREPQVYTLPPSRCELTKNQVSLSCAVKGFYPSDIAVEWESNGQPENNYKTTPPVLDSDGSFFLVSKLTVDKSRWQQGNVFSCSVMHEALHNHYTQKSLSLSPDYKDDDDK EPKSSDKTHTCPPCPAPELLGGPSVFLFPPKPKDTLMISRTPEVTCVVVDVSHEDPEVKFNWYVDGVEVHNAKTKPREEQYNSTYRVVSVLTVLHQDWLNGKEYKCKVSNKALPAPIEKTISKAKGQPREPQVCTLPPSRDELTKNQVSLWCLVKGFYPSDIAVEWESNGQPENNYKTTPPVLDSDGSFFLYSKLTVDKSRWQQGNVFSCSVMHEALHNRYTQKSLSLSP light: DIVMTQSPLSLPVTPGEPASISCRSSQSLVHSNRNTYLHWYQQKPGQAPRLLIYKVSNRFSGVPDRFSGSGSGTDFTLKISRVEAEDVGVYYCGQGTQVPYTFGQGTKLEIKRTVAAPSVFIFPPSDEQLKSGTASVVCLLNNFYPREAKVQWKVDNALQSGNSQESVTEQDSKDSTYSLSSTLTLSKADYEKHKVYACEVTHQGLSSPVTKSFNRGEC
